Data on two compounds can be found in PMC8754645 (Nucleic Acids Research, 2021).

Test [1] addresses PsrA-His6 (His-tagged PsrA, LysR family transcriptional regulator of Serratia marcescens JNB5-1) (Serratia marcescens JNB5-1). Put plainly: SEC.
A further test concerns the target PsrA. The test can be described thus: isothermal titration calorimetry, one-site model. The test is classed as binding, Serratia. The conditions noted are these: 50 mM PBS pH 7.4, 25°C; 30 μM PsrA titrated with 0.3 mM ligand; effector, no DNA.

On to “PsrA-His6 (His-tagged PsrA, LysR family transcriptional regulator of Serratia marcescens JNB5-1) (natural protein)”, for which the stoichiometry N in test [1] is 4.

Take `O=C(O)[C@@H]1CCCN1` [L-proline]: on PsrA, the Kd was 13.6 µM.
